Patent US20160090422A1 (Genentech, published 2016)
Changes are numbered by the printed parent chain.

What was measured:
rhesus monkey CRTh2 [1] = target: T1, rhesus monkey CRTh2 (rhesus monkey, UniProt Q9Y5Y4 1-395 (human entry)); assay: flow cytometry, 293 cells expressing rhesus CRTh2 [Cont.]
T1 construct: also native on primary rhesus basophils and eosinophils; also called rhesus CRTh2
T1 chain: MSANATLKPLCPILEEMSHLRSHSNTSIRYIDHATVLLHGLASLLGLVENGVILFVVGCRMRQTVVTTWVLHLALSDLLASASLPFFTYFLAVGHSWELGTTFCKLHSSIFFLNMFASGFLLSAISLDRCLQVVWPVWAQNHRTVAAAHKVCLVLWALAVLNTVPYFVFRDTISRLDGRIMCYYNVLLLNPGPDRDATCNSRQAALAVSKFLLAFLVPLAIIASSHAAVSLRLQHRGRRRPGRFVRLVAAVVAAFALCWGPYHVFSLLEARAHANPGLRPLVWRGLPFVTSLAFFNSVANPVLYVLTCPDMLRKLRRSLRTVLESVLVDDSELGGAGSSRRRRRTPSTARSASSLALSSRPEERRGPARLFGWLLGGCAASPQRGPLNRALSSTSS

cynomolgus monkey CRTh2 [2] = target: T2, cynomolgus monkey CRTh2 (cynomolgus monkey, UniProt Q9Y5Y4 1-395 (human entry)); assay: flow cytometry, 293 cells expressing cynomolgus CRTh2 [Cont.]
T2 construct: also native on primary cyno basophils and eosinophils; also called cyno CRTh2; cynomologous CRTh2
T2 chain: T1 chain with P193S, P276R, R360H

human CRTh2 [3] = target: T3, human CRTh2 (human, UniProt Q9Y5Y4 1-395); assay: flow cytometry on basophils and eosinophils of human PBMC; antibody at 5 and 0.5 ug/ml, labelled anti-mouse IgG [Cont.]
T3 construct: also native CRTh2 on primary human basophils, eosinophils and Th2 cells; also called hCRTh2; chemoattractant receptor-homologous molecule expressed on T helper 2 cells
T3 sequence: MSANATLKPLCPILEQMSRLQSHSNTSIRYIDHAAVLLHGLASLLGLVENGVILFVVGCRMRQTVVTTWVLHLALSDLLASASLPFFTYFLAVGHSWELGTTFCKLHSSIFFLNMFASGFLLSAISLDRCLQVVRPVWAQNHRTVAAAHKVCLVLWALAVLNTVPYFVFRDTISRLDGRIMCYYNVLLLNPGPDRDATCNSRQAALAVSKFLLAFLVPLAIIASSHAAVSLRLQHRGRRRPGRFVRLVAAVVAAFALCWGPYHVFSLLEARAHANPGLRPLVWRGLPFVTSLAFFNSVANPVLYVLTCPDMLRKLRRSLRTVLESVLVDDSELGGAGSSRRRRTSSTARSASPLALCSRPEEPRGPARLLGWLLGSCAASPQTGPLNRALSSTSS

rhesus monkey CRTh2 [4] = target: T1, rhesus monkey CRTh2; assay: flow cytometry, 293 cells expressing amino-terminal gD-tagged rhesus CRTh2; antibody at 10, 1 and 0.1 ug/ml
rhesus monkey CRTh2 [5] = target: T1, rhesus monkey CRTh2; assay: flow cytometry, 293 cells expressing rhesus CRTh2; antibody at 0.55, 0.18, 0.06, 0.02 and 0.006 ug/ml [Cont.]
human CRTh2 [6] = target: T3, human CRTh2; assay: flow cytometry, 293 cells expressing amino-terminal gD-tagged human CRTh2; antibody at 10, 1 and 0.1 ug/ml
human CRTh2 [7] = target: T3, human CRTh2; assay: radioligand cell binding assay with homologous competition (Scatchard), 293 cells expressing human CRTh2
Experimental: (§1) The equilibrium dissociation constants (KD) for anti-CRTH2 antibodies binding to cells expressing recombinant CRTh2 receptor were determined using a radioligand cell binding assay. […] The cells expressing the CRTh2 receptor were incubated for 2 hours at room temperature with a fixed concentration of iodinated anti-CRTh2 antibody combined with increasing concentrations of unlabeled anti-CRTh2 antibody and including a zero-added, buffer only sample. After the 2-hour incubation, the competition reactions were transferred to a Millipore Multiscreen filter plate and washed 4 times with binding buffer to separate the free from bound iodinated antibody. The filters were counted on a Wallac Wizard 1470 gamma counter. The binding data was evaluated using NewLigand software (Genentech), which uses the fitting algorithm of Munson and Rodbard to determine the binding affinity of the anti-CRTh2 antibody (Munson and Rodbard, Anal. Biochem, 1980; 107: 220-239).
(§2) To obtain a direct measurement of the KD value of humanized antibodies h19A2.v12 and h19A2.v60, Fab fragments of these antibodies were generated and subjected to radioligand cell binding assays (FIG. 4B).

human CRTh2 [8] = target: T3, human CRTh2; assay: radioligand cell binding assay with homologous competition (Scatchard), 300.19 cells expressing human CRTh2
Experimental: as §1, §2

human CRTh2 [9] = target: T3, human CRTh2; assay: radioligand cell binding assay (Scatchard), Fab, 293 cells expressing human CRTh2
Experimental: as §1, §2

cynomolgus monkey CRTh2 [10] = target: T2, cynomolgus monkey CRTh2; assay: radioligand cell binding assay (Scatchard), Fab, 293 cells expressing cynomolgus monkey CRTh2
Experimental: After the 2-hour incubation, the competition reactions were transferred to a Millipore Multiscreen filter plate and washed 4 times with binding buffer to separate the free from bound iodinated antibody. The filters were counted on a Wallac Wizard 1470 gamma counter. The binding data was evaluated using NewLigand software (Genentech), which uses the fitting algorithm of Munson and Rodbard to determine the binding affinity of the anti-CRTh2 antibody (Munson and Rodbard, Anal. Biochem, 1980; 107: 220-239).
as §2
(§3) Radiolabeled ligand analysis with homologous competition was performed to assess the dissociation constant (KD) of anti-CRTh2 antibodies to surface expressed human and cynomolgus monkey CRTh2 on 293 cells. To obtain a direct measurement of the KD value of humanized antibodies h19A2.v52 and h19A2.v46, Fab fragments of these antibodies were generated (FIG. 16).

cynomolgus monkey CRTh2 [11] = target: T2, cynomolgus monkey CRTh2; assay: ratio of Scatchard KD values, cyno against human CRTh2 on 293 cells
Experimental: The filters were counted on a Wallac Wizard 1470 gamma counter. The binding data was evaluated using NewLigand software (Genentech), which uses the fitting algorithm of Munson and Rodbard to determine the binding affinity of the anti-CRTh2 antibody (Munson and Rodbard, Anal. Biochem, 1980; 107: 220-239).
as §2, §3

B1: murine anti-CRTh2 antibody 3C12 (antibody, mouse IgG2a, V domains shown)
VH: QVQLQQSGADLVRPGTSVKVSCKASGYAFTNYLIDWVKQRPGQGLEWIGAIHPGSGRTHYNEKFKGKATLTADKSSSAAYMQISSLTSDDSAVFFCARSGGSSFDYYAMDYWGQGTSVTVSS
VL: DIQMTQSPSSLSASLGERVSLTCRASQEIGGYLSWLQQKPDGTFKRLIYAASTLDSGVPKRFSGSRSGSDYSLTISSLESEDFADYYCLQYANYPYTFGGGTKLEIK
notes: Mouse monoclonal (hybridoma antibody; heavy chain also recloned with mouse IgG2a Fc); also called mu3C12
B1: no binding (tested: 20 ug/ml) (rhesus monkey CRTh2 [1]); no binding (tested: 20 ug/ml) (cynomolgus monkey CRTh2 [2]); binds (human CRTh2 [3]).

B2: humanized and engineered anti-CRTh2 antibody hu19A2.v12 (antibody, human IgG1, kappa, V domains shown)
VH: EVQLVESGGGLVQPGGSLRLSCAASGFTFSSYSMSWVRQAPGKGLEWVAYISNGGSTTDYPGTVEGRFTISRDNSKNTLYLQMNSLRAEDTAVYYCARHRTNWDFDYWGQGTLVTVSS
VL: DIQMTQSPSSLSASVGDRVTITCRASENIYWNLAWYQQKPGKAPKLVVYAATQLADGVPSRFSGSGSGTDYTLTISSLQPEDFATYYCQHFWITPWTFGQGTKVEIKR
notes: Human IgG1; whole antibody as used in flow cytometry; also called h19A2.v12
B2: binds (rhesus monkey CRTh2 [4]).

B3: humanized affinity matured anti-CRTh2 antibody hu19A2.v46 (antibody, human IgG1, kappa, V domains shown)
VH: B2 VH with S33L, Y50R
VL: B2 VL
notes: Human IgG1; whole antibody as used in flow cytometry; also called h19A2.v46
B3: binds (rhesus monkey CRTh2 [5]).

B4: humanized affinity matured anti-CRTh2 antibody hu19A2.v52 (antibody, human IgG1, kappa, V domains shown)
VH: B2 VH with S33L, Y50R
VL: B2 VL with W31Y
notes: Human IgG1; whole antibody as used in flow cytometry and the cAMP assay; also called h19A2.v52; h19A2.52
B4: binds (rhesus monkey CRTh2 [5]).

B5: humanized anti-CRTh2 antibody hu19A2.v1 (antibody, human IgG1, kappa, V domains shown)
VH: B2 VH with D59Y
VL: B2 VL with W31S
notes: also called h19A2.v1
B5: binds (human CRTh2 [6]).

B6: murine anti-CRTh2 antibody 31A5 (antibody, mouse IgG2a, V domains shown)
VH: QVQLKESGPGLVAPSQSLSITCTVSGFSLTGYGVNWVRQPPGKGLEWLGMIWDDGTTDFDSALRSRLSISKDNSKSQVFLKMNSLQTDDTARYFCARGDYGYAMDYWGQGTSVTVSS
VL: DIQMTQSPASLSVSVGETVTITCRASVNIYSNLAWYQQRQGKSPQLLVYAATNLAEGVPSRFSGSGSGTQYSLKINSLQSEDFGSYYCQHFWVTPYTFGGGTKLEIK
notes: Mouse monoclonal (hybridoma antibody; heavy chain also recloned with mouse IgG2a Fc); also called mu31A5
B6: no binding (tested: 20 ug/ml) (rhesus monkey CRTh2 [1]); no binding (tested: 20 ug/ml) (cynomolgus monkey CRTh2 [2]).

B7: murine anti-CRTh2 antibody 19A2 (antibody, V domains shown)
VH: EVKLVESGGGLVQPGGSLKLSCAASGFTFSSYSMSWVRQTPEKRLEWVAYISNGGSTTYYPGTVEGRFTISRDNAKNTLFLQMSSLRSKDTAMYYCARHRTNWDFDYWGQGTTLTVSS
VL: B6 VL with V27E, R39K, L47V, N53Q, E56D, V93I, Y96W
notes: whole IgG in the Scatchard assay; also called mu19A2; Mab 19A2
With B7 the Kd (human CRTh2 [7]) was 2 nM and the Kd (human CRTh2 [8]) was 10.2 nM.

B8: murine anti-CRTh2 antibody 8B1 (antibody, V domains shown)
VH: QVQLQQSGTGLVRPGTSVRVSCKASGYAFITYLIEWIKQRPGQGLEWIGVIHPGSGNSHYNEKFKGKATLTADTSSSTAYMQLSSLTSGDSAVYFCARSGSSSFDYYAMDFWGQGTSVTVSS
VL: B1 VL with G30S, L33F, F44I
notes: Mouse monoclonal, hybridoma antibody or recloned with mouse IgG2a Fc; whole IgG in the Scatchard assay; also called mu8B1; Mab 8B1
Binder B8 has a Kd (human CRTh2 [7]) of 2.6 nM.

B9: h19A2.v46 Fab fragment (Fab, V domains shown)
VH: B2 VH with S33L, Y50R
VL: DIQMTQSPSSLSASVGDRVTITCRASENIYWNLAWYQQKPGKAPKLVVYAATQLADGVPSRFSGSGSGTDYTLTISSLQPEDFATYYCQHFWITPWTFGQGTKVEIK
notes: Fab fragment of the humanized IgG; also called h19A2.v46 (Fab fragment of IgG)
In the case of B9, the Kd (human CRTh2 [9]) is reported as 6.4 nM and the Kd (cynomolgus monkey CRTh2 [10]) is reported as 8.6 nM.

B10: h19A2.v12 Fab fragment (Fab, V domains shown)
VH: B2 VH
VL: B9 VL
notes: Fab fragment of the humanized IgG, 125I-labelled in the radioligand assay; also called h19A2.v12 (Fab fragment of IgG); h19A2.12
For B10, the “relative binding affinity for human versus cyno CRTh2” value (cynomolgus monkey CRTh2 [11]) was ≤ 3 fold, the Kd (human CRTh2 [9]) was 51 nM and the Kd (cynomolgus monkey CRTh2 [10]) was 152 nM.

B11: h19A2.v52 Fab fragment (Fab, V domains shown)
VH: B2 VH with S33L, Y50R
VL: B9 VL with W31Y
notes: Fab fragment of the humanized IgG; also called h19A2.v52 (Fab fragment of IgG); h19A2.52
In the case of B11, the “relative binding affinity for human versus cynomolgus CRTh2” value (cynomolgus monkey CRTh2 [11]) is reported as ≤ 2 fold, the Kd (human CRTh2 [9]) is reported as 13.7 nM and the Kd (cynomolgus monkey CRTh2 [10]) is reported as 21.3 nM.

B12: h19A2.v60 Fab fragment (Fab, V domains shown)
VH: B2 VH with S33L, Y50R
VL: B9 VL with W31Y, V47L, V48I, D56E
notes: Fab fragment of the humanized IgG; also called h19A2.v60 (Fab fragment of IgG)
With B12 the Kd (human CRTh2 [9]) was 56 nM and the Kd (cynomolgus monkey CRTh2 [10]) was 39 nM.
